From article PMC5383250, “Functional studies of E. faecalis RNase J2 and its role in virulence and fitness” (PLoS ONE, 2017)

Target: T1, E. faecalis RNase J2 (Enterococcus faecalis (strain OG1RF), UniProt Q836D0 1-562)
T1 construct: RNase J2 of Enterococcus faecalis, product of rnjB (ef1185); 1689 bp fragment PCR amplified from the OG1RF genome with primers 1185NdeF (begins at the ATG) and 1185XhoR (ends at the stop codon), in vector pQE30; recombinant protein M.W. 64.2 kDa; Vector pQE30; also called wild-type RNase J2; rnjB gene product; source: E. coli BL21, purified (Ni-NTA agarose)
T1 sequence (looked up): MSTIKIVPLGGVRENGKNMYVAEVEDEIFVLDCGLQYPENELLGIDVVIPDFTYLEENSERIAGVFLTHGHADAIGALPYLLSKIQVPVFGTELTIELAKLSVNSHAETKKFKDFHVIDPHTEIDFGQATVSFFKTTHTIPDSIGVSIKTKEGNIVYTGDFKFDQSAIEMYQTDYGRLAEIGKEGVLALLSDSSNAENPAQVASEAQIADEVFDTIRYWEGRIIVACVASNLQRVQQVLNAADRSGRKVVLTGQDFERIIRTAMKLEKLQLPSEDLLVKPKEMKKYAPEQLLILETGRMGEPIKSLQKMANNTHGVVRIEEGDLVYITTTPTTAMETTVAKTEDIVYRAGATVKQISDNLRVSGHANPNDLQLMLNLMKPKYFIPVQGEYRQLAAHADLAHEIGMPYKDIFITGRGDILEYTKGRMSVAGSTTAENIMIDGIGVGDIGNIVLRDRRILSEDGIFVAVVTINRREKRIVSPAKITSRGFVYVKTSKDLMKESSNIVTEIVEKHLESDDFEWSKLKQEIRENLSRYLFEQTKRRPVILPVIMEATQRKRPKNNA
Test: SPR; Biacore T100; E. faecalis RNase J1 immobilized on a CM5 sensor surface; J2 proteins 400 to 50 nM in duplicate; fitted to the 1:1 binding model
Details: both partners purified

B1: E. faecalis RNase J1 (enzyme)
chain: not shown
notes: recombinant protein M.W. 62.6 kDa; also called rnjA gene product; ef2924; source: E. coli BL21, purified (Ni-NTA agarose)
Kd: 74 nM
